Test results taken from patent publication US20120142597A1 (GEORGIA TECH RESEARCH, published 2012).

Columns and labels:
[1] = target: T1, α5β1 integrin on MC3T3-E1 murine osteoblast-like cells (mouse, UniProt P11688 45-1053; P09055 21-798); test: antibody blocking of adhesion, MC3T3-E1 cells on tethered ligand
T1 construct: whole, on cells; also called alpha5beta1
Protocol: MC3T3-E1 cells were labeled with 4 mM calcein-AM, a membrane-permeable green fluorescent dye, in 2 mM dextrose-DPBS for 30 min and resuspended in α-MEM with 10% FBS. Cells were seeded onto the surfaces at 200 cells/mm², and allowed to attach for 1 h at 37° C. For blocking antibody experiments, cells were incubated in the presence of function-perturbing antibodies (10 μg/ml) for 10 min with gentle agitation prior to cell seeding. […] Wells were then filled completely with dextrose-PBS, sealed, inverted, and centrifuged for 5 min at a prescribed speed on a Beckman Allegra 6 centrifuge (GH 3.8 rotor) to apply normal detachment forces. Media was then gently aspirated from the wells, and wells were refilled for post-spin image collection. Post/pre-spin cell ratios were determined by image analysis, and this adhesive fraction was plotted against ligand surface density to obtain cell adhesion profiles.
Function-perturbing antibodies directed against different integrin subunits were used to block adhesion to the engineered interfaces. Since integrins α₅β₁ and αᵥβ₃ represent the dominant adhesion receptors for FN in MC3T3-E1 cells, the contributions of these receptors to adhesion strength on the peptide-functionalized SAMs was examined. Surfaces were tethered with maximum density of ligand, and the relative cell adhesion was normalized to unblocked controls.

[2] = target: αvβ3 integrin on MC3T3-E1 murine osteoblast-like cells (mouse, UniProt P43406 31-1044; O54890 26-787); test: cell-based or functional assay
Sequence of αvβ3 integrin on MC3T3-E1 murine osteoblast-like cells (P43406 31-1044, chain 1 of 2): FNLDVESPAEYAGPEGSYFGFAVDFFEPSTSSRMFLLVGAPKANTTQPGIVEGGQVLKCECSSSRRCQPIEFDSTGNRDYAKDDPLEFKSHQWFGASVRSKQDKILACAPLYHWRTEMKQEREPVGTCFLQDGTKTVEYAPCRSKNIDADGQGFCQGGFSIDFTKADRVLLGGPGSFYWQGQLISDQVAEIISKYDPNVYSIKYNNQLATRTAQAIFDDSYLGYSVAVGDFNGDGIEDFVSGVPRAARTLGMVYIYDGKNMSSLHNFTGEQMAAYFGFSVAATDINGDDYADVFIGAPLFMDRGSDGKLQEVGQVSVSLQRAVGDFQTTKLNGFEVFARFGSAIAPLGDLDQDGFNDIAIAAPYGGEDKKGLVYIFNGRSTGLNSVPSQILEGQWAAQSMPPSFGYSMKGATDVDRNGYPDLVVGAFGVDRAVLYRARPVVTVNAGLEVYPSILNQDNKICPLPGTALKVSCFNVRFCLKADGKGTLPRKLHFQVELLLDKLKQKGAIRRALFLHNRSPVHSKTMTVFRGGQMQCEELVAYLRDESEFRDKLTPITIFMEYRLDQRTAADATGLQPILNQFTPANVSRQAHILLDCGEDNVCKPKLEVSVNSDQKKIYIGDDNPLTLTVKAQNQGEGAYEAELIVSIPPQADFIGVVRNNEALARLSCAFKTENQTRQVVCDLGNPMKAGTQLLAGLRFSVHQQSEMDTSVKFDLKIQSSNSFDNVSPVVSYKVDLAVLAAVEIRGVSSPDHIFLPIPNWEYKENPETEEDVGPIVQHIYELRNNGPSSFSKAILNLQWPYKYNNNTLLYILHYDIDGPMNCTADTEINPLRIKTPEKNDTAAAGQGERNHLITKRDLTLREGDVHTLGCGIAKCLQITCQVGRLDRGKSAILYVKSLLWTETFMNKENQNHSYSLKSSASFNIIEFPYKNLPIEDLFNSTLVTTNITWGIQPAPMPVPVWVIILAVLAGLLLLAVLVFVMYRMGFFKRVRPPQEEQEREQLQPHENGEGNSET
Sequence of αvβ3 integrin on MC3T3-E1 murine osteoblast-like cells (O54890 26-787, chain 2 of 2): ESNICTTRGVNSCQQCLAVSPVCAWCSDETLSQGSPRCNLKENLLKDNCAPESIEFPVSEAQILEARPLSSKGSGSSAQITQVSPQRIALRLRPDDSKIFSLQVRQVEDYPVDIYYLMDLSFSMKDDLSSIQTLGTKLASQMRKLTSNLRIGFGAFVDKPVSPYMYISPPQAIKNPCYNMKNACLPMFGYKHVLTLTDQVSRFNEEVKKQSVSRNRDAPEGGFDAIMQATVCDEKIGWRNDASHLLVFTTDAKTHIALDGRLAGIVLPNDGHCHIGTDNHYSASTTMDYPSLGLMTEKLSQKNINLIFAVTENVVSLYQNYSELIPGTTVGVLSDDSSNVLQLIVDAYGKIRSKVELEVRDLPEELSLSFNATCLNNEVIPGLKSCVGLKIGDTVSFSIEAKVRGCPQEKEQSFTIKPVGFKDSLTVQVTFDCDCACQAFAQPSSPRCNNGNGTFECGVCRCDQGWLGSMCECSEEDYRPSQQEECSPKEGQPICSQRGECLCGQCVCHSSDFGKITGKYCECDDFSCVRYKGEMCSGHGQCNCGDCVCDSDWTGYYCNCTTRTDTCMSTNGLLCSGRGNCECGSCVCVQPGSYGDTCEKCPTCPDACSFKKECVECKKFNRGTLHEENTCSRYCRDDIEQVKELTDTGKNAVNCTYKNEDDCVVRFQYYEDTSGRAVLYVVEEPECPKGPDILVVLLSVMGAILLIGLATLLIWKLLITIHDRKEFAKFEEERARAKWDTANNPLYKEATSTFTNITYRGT

[3] = target: T1, α5β1 integrin on MC3T3-E1 murine …; test: cell-based or functional assay

T1 sequence (P11688 45-1053, chain 1 of 2): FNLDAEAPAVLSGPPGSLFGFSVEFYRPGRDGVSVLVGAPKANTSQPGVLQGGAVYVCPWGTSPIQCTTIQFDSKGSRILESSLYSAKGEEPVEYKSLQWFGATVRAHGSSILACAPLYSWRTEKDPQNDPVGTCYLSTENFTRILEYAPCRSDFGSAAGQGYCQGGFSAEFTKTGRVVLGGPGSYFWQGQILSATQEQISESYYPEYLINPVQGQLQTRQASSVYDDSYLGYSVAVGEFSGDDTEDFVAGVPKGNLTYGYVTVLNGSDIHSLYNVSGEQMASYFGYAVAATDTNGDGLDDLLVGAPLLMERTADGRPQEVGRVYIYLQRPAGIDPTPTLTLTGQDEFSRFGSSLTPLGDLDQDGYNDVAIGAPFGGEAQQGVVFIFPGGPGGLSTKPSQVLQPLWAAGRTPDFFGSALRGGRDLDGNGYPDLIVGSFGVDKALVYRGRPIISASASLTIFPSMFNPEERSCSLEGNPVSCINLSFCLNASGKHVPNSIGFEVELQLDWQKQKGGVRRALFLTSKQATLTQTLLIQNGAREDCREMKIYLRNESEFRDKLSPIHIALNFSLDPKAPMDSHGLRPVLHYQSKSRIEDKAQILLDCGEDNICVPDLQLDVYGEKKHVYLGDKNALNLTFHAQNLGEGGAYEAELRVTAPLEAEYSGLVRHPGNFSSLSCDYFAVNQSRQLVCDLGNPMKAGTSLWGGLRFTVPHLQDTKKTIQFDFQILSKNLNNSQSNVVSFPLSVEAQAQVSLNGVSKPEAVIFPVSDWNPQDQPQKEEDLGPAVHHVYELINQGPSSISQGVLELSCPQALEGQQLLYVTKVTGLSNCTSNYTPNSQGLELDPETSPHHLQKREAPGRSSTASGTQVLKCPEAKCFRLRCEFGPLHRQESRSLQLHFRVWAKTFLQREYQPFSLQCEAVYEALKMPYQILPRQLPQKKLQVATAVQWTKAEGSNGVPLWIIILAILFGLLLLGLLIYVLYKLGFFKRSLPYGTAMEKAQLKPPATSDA
T1 sequence (P09055 21-798, chain 2 of 2): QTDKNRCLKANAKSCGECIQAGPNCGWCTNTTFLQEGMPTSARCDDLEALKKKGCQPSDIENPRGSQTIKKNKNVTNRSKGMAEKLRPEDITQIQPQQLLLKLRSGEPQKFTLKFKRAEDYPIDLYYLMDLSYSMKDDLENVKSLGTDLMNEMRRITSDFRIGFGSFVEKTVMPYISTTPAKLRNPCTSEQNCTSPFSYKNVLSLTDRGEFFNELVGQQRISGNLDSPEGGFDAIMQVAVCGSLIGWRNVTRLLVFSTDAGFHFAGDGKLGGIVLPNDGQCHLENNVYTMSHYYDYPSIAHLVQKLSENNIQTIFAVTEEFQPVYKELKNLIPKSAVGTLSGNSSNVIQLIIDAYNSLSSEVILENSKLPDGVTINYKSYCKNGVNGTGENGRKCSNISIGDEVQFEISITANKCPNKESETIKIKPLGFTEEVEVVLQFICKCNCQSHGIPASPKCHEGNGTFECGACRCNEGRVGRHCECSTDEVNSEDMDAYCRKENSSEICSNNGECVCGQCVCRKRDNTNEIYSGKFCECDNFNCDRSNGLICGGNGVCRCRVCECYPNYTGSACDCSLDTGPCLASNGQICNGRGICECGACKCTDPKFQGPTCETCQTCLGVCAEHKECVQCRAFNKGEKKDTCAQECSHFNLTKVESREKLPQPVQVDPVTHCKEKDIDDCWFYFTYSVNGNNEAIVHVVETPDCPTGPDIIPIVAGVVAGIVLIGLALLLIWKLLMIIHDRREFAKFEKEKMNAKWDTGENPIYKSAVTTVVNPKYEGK

| Binder | binding result [1] | ADH50 (ligand density required for half-maximal adhesion of MC3T3-E1 cells) [2] | ADH50 (ligand density required for half-maximal adhesion of MC3T3-E1 cells) [3] | FAK tyrosine-397 phosphorylation, FNIII7-10 surface against RGD-tethered surface [3] | cell proliferation rate (BrdU incorporation), FNIII7-10 surface against RGD-tethered surface [3] |
| --- | --- | --- | --- | --- | --- |
| GRGDGGGGGGGGGGGGGPHSRN (Synthetic; tethered to SAMs) [RGD-PHSRN peptide (GRGDG13PHSRN)] | no binding | 1950 fmol/cm^2 |  |  |  |
| GRGDSPC [RGD peptide (GRGDSPC)] |  | 2300 fmol/cm^2 |  |  |  |
| monobiotinylated recombinant fibronectin fragment FNIII7-10 (ligand, single biotin on the N-terminal biotin tagging sequence (monobiotinylated)) not shown |  |  | 70 fmol/cm^2 | ~3 fold | 2 fold |
